Here are results for 1 molecule from publication PMC7287642, “SPR Biosensor Based on Polymer Multi-Mode Optical Waveguide and Nanoparticle Signal Enhancement”.

The target of the series is T1, C-reactive protein (CRP) (human, UniProt P02741 19-224).
T1 sequence: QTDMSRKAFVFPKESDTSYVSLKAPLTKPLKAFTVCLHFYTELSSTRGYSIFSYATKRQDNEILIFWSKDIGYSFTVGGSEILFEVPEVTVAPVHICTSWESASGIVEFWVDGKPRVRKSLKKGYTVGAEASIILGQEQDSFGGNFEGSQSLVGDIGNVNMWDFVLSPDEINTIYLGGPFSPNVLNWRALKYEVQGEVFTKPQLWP
Put plainly: SPR (AuNP-enhanced aptamer sandwich); Apt1 on sensor and on 17 nm AuNPs; 2 mM Ca2+, 10 mM Mg2+; response 0.118 nm/nM; no shift detected with CRP alone before AuNPs; 10 mM Tris, 50 mM NaCl, 2 mM CaCl2, 10 mM MgCl2, 5 mM KCl, pH 7.5; CRP 30 min, AuNPs 10 min; readout in H2O; binding temperature not stated. Conditions: protein: native; chain copies: 5.

B1: Apt1 (anti-CRP aptamer) (ssDNA)
DNA: GGCAGGAAGACAAACACGATGGGGGGGTATGATTTGATGTGGTTGTTGCATGATCGTGGTTGTGGTGCTGT
modifications: 5'-biotin
In the case of B1, the binding result is recorded as “binds”.
